{"source": "paper PMC7040040", "about": "(2020)", "key": {"[1]": {"target": "T1, PBD-C06 (final humanized, de-immunized antibody with the complement mutation K322A) (human)", "T1 sequence (chain, as listed by the source K322A, chain 1 of 2)": "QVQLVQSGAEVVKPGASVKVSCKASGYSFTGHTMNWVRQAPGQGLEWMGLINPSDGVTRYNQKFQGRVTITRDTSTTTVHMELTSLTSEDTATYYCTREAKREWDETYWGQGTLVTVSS", "T1 sequence (chain, as listed by the source K322A, chain 2 of 2)": "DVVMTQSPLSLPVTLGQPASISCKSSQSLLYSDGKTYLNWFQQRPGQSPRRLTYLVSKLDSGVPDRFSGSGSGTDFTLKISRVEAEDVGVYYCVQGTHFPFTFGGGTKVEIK", "experiment": "SPR"}, "[2]": {"target": "T1, PBD-C06 (final humanized, de-immunized …)", "experiment": "SPR", "remark": "listed apart in the source"}}, "note": "Non-standard residues stand in square brackets, D forms with d. No end group written: not given here. pGlu = O=C1CC[C@@H](C(=O)O)N1"}
{"binder": "FRHDSGYEVHHQKLV", "note": "[Aβ(4–18) monomer]", "values": [{"measurement": "Kd", "setting": "[1]", "value": "> 50000", "unit": "nM"}]}
{"binder": "[pGlu]FRHDSGYEVHHQKLV", "note": "[pE3-Aβ(3–18) monomer]", "values": [{"measurement": "koff", "setting": "[2]", "value": 0.00393, "unit": "s⁻¹"}, {"measurement": "Kd", "setting": "[1]", "value": 7.86, "unit": "nM"}]}
